# B1: PBP3_(88–165), Val88-Ser165 subdomain of Escherichia coli PBP3, strep-tag removed (domain or fragment, UniProt P0AD68 88-165, looked up)
# chain: VKAIWADPKEVHDAGGISVGDRWKALANALNIPLDQLSARINANPKGRFIYLARQVNPDMADYIKKLKLPGIHLREES
# notes: The tag is said to be removed before crystallization; Residues of the vector may remain at the N-terminus after the tag was removed; A selenomethionine form was used for phasing only; also called PBP3 Val88-Ser165 subdomain; source: E. coli C41(DE3) with pDML2042 (pET-52b(+)), purified (Strep-Tactin column), strep-tag removed; not shown: Strep-tag, N-terminal, cleaved
# B2: PBP3_(57–577), soluble periplasmic form of Escherichia coli penicillin-binding protein 3 (domain or fragment, UniProt P0AD68 57-577, looked up)
# chain: GDMRSLRVQQVSTSRGMITDRSGRPLAVSVPVKAIWADPKEVHDAGGISVGDRWKALANALNIPLDQLSARINANPKGRFIYLARQVNPDMADYIKKLKLPGIHLREESRRYYPSGEVTAHLIGFTNVDSQGIEGVEKSFDKWLTGQPGERIVRKDRYGRVIEDISSTDSQAAHNLALSIDERLQALVYRELNNAVAFNKAESGSAVLVDVNTGEVLAMANSPSYNPNNLSGTPKEAMRNRTITDVFEPGSTVKPMVVMTALQRGVVRENSVLNTIPYRINGHEIKDVARYSELTLTGVLQKSSNVGVSKLALAMPSSALVDTYSRFGLGKATNLGLVGERSGLYPQKQRWSDIERATFSFGYGLMVTPLQLARVYATIGSYGIYRPLSITKVDPPVPGERVFPESIVRTVVHMMESVALPGGGGVKAAIKGYRIAIKTGTAKKVGPDGRYINKYIAYTAGVAPASQPRFALVVVINDPQAGKYYGGAVSAPVFGAIMGGVLRTMNIEPDALTTGDKNEFV
# notes: the ftsI gene encodes 588 residues and 11 C-terminal residues are removed by proteolytic cleavage; No tag is mentioned; also called FtsI; periplasmic domain of PBP3; source: E. coli W3110M (plasmid pDML232, with pDML237 for SecB), purified (S-Sepharose twice, Superdex 200)
# Legend:
# [1] = biological target: the molecule itself; experiment: dynamic light scattering + other: static light scattering; PBP3_(88–165), batch mode, 20°C, buffer and concentration as for crystallogenesis (7.5 mg/ml, 0.15 M NaCl, 0.1 M Tris pH 8, 1 mM EDTA)
# [2] = biological target: the molecule itself; experiment: dynamic light scattering + other: static light scattering; PBP3_(57–577), batch mode, 20°C, buffer and concentration as for crystallogenesis (18 mg/ml, 0.5 M NaCl, 20 mM Tris pH 8)
Protein,stoichiometry N [1],stoichiometry N [2]
B1,2,
B2,,2
